Experimental data as given in patent US20030203869A1.

Target: purified HLA-A2.1 molecules (human)
Assay: inhibition of binding of a labeled reference peptide to purified HLA-A2.1

| Substance | IC50 |
| --- | --- |
| HBV Core 18 (HBV core 18-27) CTL epitope peptide […] (peptide; other documents disagree on this pair) | 3 nM |
| HBV Pol 551-A (native HBV pol 551-559) CTL epitope peptide […] (peptide; other documents disagree on this pair) | 200 nM |
| HIV Pol 476 (HIV pol 476-484) CTL epitope peptide […] (peptide; other documents disagree on this pair) | 192 nM |
